T1: 4H816-AA
T1 chain: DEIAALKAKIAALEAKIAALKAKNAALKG

T2: 4H3940-AA
T2 chain: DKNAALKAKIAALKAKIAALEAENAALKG

T3: 4H3625-AA
T3 chain: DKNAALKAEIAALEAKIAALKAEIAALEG

T4: 4H3409-AA
T4 chain: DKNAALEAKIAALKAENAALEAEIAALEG

T5: 4H2873-AA
T5 chain: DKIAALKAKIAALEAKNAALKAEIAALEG

T6: 4H3134-AA
T6 chain: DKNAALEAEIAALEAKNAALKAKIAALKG

T7: 4H87-AA
T7 chain: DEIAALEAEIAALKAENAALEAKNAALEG

T8: 4H2985-AA
T8 chain: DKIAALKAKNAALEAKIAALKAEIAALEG

T9: 4H510-AA
T9 chain: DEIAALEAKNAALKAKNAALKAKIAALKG

T10: 4H390-AA
T10 chain: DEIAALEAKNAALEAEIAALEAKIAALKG

T11: 4H775-AA
T11 chain: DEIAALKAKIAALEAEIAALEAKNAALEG

T12: P10-AA
T12 chain: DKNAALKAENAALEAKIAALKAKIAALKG

T13: O8-AA
T13 chain: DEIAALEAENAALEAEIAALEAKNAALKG

T14: P9-AA
T14 chain: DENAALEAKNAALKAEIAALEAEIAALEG


Experiments:
Assay in all cases: two-hybrid library CCmax;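 note: natural log of median RNA to DNA barcode read ratio; higher means stronger binding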
4H816-AA = target: T1, 4H816-AA; settings: mean of both orientations
4H3940-AA = target: T2, 4H3940-AA; settings: mean of both orientations
4H3625-AA = target: T3, 4H3625-AA; settings: mean of both orientations
4H3409-AA = target: T4, 4H3409-AA; settings: mean of both orientations
4H2873-AA = target: T5, 4H2873-AA
4H3134-AA = target: T6, 4H3134-AA; settings: mean of both orientations
4H87-AA = target: T7, 4H87-AA; settings: mean of both orientations
4H2985-AA = target: T8, 4H2985-AA; settings: mean of both orientations
4H510-AA = target: T9, 4H510-AA; settings: mean of both orientations
4H390-AA = target: T10, 4H390-AA; settings: mean of both orientations
4H775-AA = target: T11, 4H775-AA; settings: mean of both orientations
P10-AA = target: T12, P10-AA; settings: mean of both orientations
O8-AA = target: T13, O8-AA
P9-AA = target: T14, P9-AA; settings: mean of both orientations

Binder	interaction score (4H816-AA)	interaction score (4H3940-AA)	interaction score (4H3625-AA)	interaction score (4H3409-AA)	interaction score (4H2873-AA)	interaction score (4H3134-AA)	interaction score (4H87-AA)	interaction score (4H2985-AA)	interaction score (4H510-AA)	interaction score (4H390-AA)	interaction score (4H775-AA)	interaction score (P10-AA)	interaction score (O8-AA)	interaction score (P9-AA)
DKIAALKAKIAALEAKNAALKAEIAALEG [4H2873-AA]	-0.999	-1.33	1.8	0.324	0.429	1.06	0.464	2.29	-0.174	2.21	-0.187			
DEIAALEAENAALEAEIAALEAKNAALKG [O8-AA]												-0.856	-1.16	-1.26

— paper PMC10397247
